Laboratory results from patent publication US20150125397A1 (AbbVie / Abbott, published 2015).

How the values were obtained:
[1] = biological target: mouse IgM B cell receptor on primary murine B cells (mouse); test: cell-based or functional assay
mouse IgM = mouse IgM (mouse, UniProt P01872 1-454); test: IgM binding ELISA, mIgM coated on plate
Chain of mouse IgM (P01872 whole entry): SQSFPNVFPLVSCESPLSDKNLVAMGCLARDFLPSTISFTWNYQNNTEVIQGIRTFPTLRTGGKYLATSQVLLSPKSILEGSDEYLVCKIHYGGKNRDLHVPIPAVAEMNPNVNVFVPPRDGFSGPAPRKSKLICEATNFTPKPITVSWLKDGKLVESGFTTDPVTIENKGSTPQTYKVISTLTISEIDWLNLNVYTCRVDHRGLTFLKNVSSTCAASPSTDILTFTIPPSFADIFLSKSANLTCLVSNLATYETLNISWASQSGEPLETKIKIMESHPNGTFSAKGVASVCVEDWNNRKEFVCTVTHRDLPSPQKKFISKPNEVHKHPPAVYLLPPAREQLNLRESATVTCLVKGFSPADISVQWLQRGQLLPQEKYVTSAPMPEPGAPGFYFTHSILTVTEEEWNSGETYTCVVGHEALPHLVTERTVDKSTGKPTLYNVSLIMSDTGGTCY

B1: DVD3755 (bispecific antibody, human IgG1, kappa)
heavy: not shown
light: DVVMTQTPLSLPVSLGDQASISCRSSQSLVHSNGNTYLHWYLQKPGQSPKLLIYKVSNRFSGVPDRFSGSGSGTDFTLKISRVEAEDLGAYFCSQSTHVPYTFGGPTRLEIKRTVAAPNTVMTQSPTSMFISVGDRVTMNCKASQNVGSDVDWYQQKTGQSPKLLISGTSNRYTGVPDRFTGSGSGTDFTLTISNMQAEDLAVYYCLQYNYNPTFGAGTKLELKRTVAAPSVFIFPPSDEQLKSGTASVVCLLNNFYPREAKVQWKVDNALQSGNSQESVTEQDSKDSTYSLSSTLTLSKADYEKHKVYACEVTHQGLSSPVTKSFNRGEC
notes: Four-chain DVD-Ig
B1 was tested. Which “^3H incorporation, AM14 TLR9-/- B cells” value [1] did it give?
Its value is 402.

And the “^3H incorporation, AM14 WT B cells” value [1]?
Its value is 8500.

And the EC50 (mouse IgM)?
Its EC50 is 0.0971 µg/mL.

B2: DVD3752 (bispecific antibody, human IgG1, kappa)
heavy: not shown
light: DVVMTQTPLSLPVSLGDQASISCRSSQSLVHSNGNTYLHWYLQKPGQSPKLLIYKVSNRFSGVPDRFSGSGSGTDFTLKISRVEAEDLGAYFCSQSTHVPYTFGGPTRLEIKRTVAAPNTVMTQSPTSMFISVGDRVTMNCKASQNVGSDVDWYQQKTGQSPKLLISGTSNRYTGVPDRFTGSGSGTDFTLTISNMQAEDLAVYYCLQYNYNPTFGAGTKLELKRTVAAPSVFIFPPSDEQLKSGTASVVCLLNNFYPREAKVQWKVDNALQSGNSQESVTEQDSKDSTYSLSSTLTLSKADYEKHKVYACEVTHQGLSSPVTKSFNRGEC
notes: Four-chain DVD-Ig
For B2, which “^3H incorporation, AM14 TLR9-/- B cells” value [1] is on record?
The value was 512.

What about the “^3H incorporation, AM14 WT B cells” value [1] of the same binder?
Its value is 12700.

What about the EC50 (mouse IgM) of the same binder?
Its EC50 is 0.205 µg/mL.

B3: DVD3754 (bispecific antibody, human IgG1, kappa)
heavy: not shown
light: DVVMTQTPLSLPVSLGDQASISCRSSQSLVHSNGNTYLHWYLQKPGQSPKLLIYKVSNRFSGVPDRFSGSGSGTDFTLKISRVEAEDLGAYFCSQSTHVPYTFGGPTRLEIKRTVAAPSVFIFPPNTVMTQSPTSMFISVGDRVTMNCKASQNVGSDVDWYQQKTGQSPKLLISGTSNRYTGVPDRFTGSGSGTDFTLTISNMQAEDLAVYYCLQYNYNPTFGAGTKLELKRTVAAPSVFIFPPSDEQLKSGTASVVCLLNNFYPREAKVQWKVDNALQSGNSQESVTEQDSKDSTYSLSSTLTLSKADYEKHKVYACEVTHQGLSSPVTKSFNRGEC
notes: Four-chain DVD-Ig; also called IgM/DNA DVD3754
B3 was tested. Which “^3H incorporation, AM14 TLR9-/- B cells” value [1] did it give?
Its value is 1600.

What about the “^3H incorporation, AM14 WT B cells” value [1] of the same binder?
The value was 35200.

What about the EC50 (mouse IgM) of the same binder?
Its EC50 is 0.117 µg/mL.

B4: DVD3751 (bispecific antibody, human IgG1, kappa)
heavy: not shown
light: DVVMTQTPLSLPVSLGDQASISCRSSQSLVHSNGNTYLHWYLQKPGQSPKLLIYKVSNRFSGVPDRFSGSGSGTDFTLKISRVEAEDLGAYFCSQSTHVPYTFGGPTRLEIKRGGSGGGGSGNTVMTQSPTSMFISVGDRVTMNCKASQNVGSDVDWYQQKTGQSPKLLISGTSNRYTGVPDRFTGSGSGTDFTLTISNMQAEDLAVYYCLQYNYNPTFGAGTKLELKRTVAAPSVFIFPPSDEQLKSGTASVVCLLNNFYPREAKVQWKVDNALQSGNSQESVTEQDSKDSTYSLSSTLTLSKADYEKHKVYACEVTHQGLSSPVTKSFNRGEC
notes: Four-chain DVD-Ig
What does the source list for B4?
^3H incorporation, AM14 TLR9-/- B cells [1]: 1180; ^3H incorporation, AM14 WT B cells [1]: 35600; EC50 (mouse IgM): 0.191 µg/mL

B5: DVD3756 (bispecific antibody, human IgG1, kappa)
heavy: not shown
light: NTVMTQSPTSMFISVGDRVTMNCKASQNVGSDVDWYQQKTGQSPKLLISGTSNRYTGVPDRFTGSGSGTDFTLTISNMQAEDLAVYYCLQYNYNPTFGAGTKLELKRGGSGGGGSGDVVMTQTPLSLPVSLGDQASISCRSSQSLVHSNGNTYLHWYLQKPGQSPKLLIYKVSNRFSGVPDRFSGSGSGTDFTLKISRVEAEDLGAYFCSQSTHVPYTFGGPTRLEIKRTVAAPSVFIFPPSDEQLKSGTASVVCLLNNFYPREAKVQWKVDNALQSGNSQESVTEQDSKDSTYSLSSTLTLSKADYEKHKVYACEVTHQGLSSPVTKSFNRGEC
notes: Four-chain DVD-Ig
B5 was tested. Which “^3H incorporation, AM14 TLR9-/- B cells” value [1] did it give?
The value was 459.

And the “^3H incorporation, AM14 WT B cells” value [1]?
Its value is 7790.

What about the EC50 (mouse IgM) of the same binder?
The EC50 was 0.0331 µg/mL.

B6: DVD3759 (bispecific antibody, human IgG1, kappa)
heavy: not shown
light: NTVMTQSPTSMFISVGDRVTMNCKASQNVGSDVDWYQQKTGQSPKLLISGTSNRYTGVPDRFTGSGSGTDFTLTISNMQAEDLAVYYCLQYNYNPTFGAGTKLELKRTVAAPSVFIFPPDVVMTQTPLSLPVSLGDQASISCRSSQSLVHSNGNTYLHWYLQKPGQSPKLLIYKVSNRFSGVPDRFSGSGSGTDFTLKISRVEAEDLGAYFCSQSTHVPYTFGGPTRLEIKRTVAAPSVFIFPPSDEQLKSGTASVVCLLNNFYPREAKVQWKVDNALQSGNSQESVTEQDSKDSTYSLSSTLTLSKADYEKHKVYACEVTHQGLSSPVTKSFNRGEC
notes: Four-chain DVD-Ig
For B6, which “^3H incorporation, AM14 TLR9-/- B cells” value [1] is on record?
The value was 970.

And the “^3H incorporation, AM14 WT B cells” value [1]?
Its value is 18600.

And the EC50 (mouse IgM)?
Its EC50 is 0.0412 µg/mL.

B7: DVD3757 (bispecific antibody, human IgG1, kappa)
heavy: not shown
light: NTVMTQSPTSMFISVGDRVTMNCKASQNVGSDVDWYQQKTGQSPKLLISGTSNRYTGVPDRFTGSGSGTDFTLTISNMQAEDLAVYYCLQYNYNPTFGAGTKLELKRTVAAPDVVMTQTPLSLPVSLGDQASISCRSSQSLVHSNGNTYLHWYLQKPGQSPKLLIYKVSNRFSGVPDRFSGSGSGTDFTLKISRVEAEDLGAYFCSQSTHVPYTFGGPTRLEIKRTVAAPSVFIFPPSDEQLKSGTASVVCLLNNFYPREAKVQWKVDNALQSGNSQESVTEQDSKDSTYSLSSTLTLSKADYEKHKVYACEVTHQGLSSPVTKSFNRGEC
notes: Four-chain DVD-Ig
How did the “^3H incorporation, AM14 TLR9-/- B cells” value [1] turn out when B7 was run?
Its value is 382.

And the “^3H incorporation, AM14 WT B cells” value [1]?
The value was 4060.

And the EC50 (mouse IgM)?
Its EC50 is 0.0418 µg/mL.

B8: DVD3760 (bispecific antibody, human IgG1, kappa)
heavy: not shown
light: NTVMTQSPTSMFISVGDRVTMNCKASQNVGSDVDWYQQKTGQSPKLLISGTSNRYTGVPDRFTGSGSGTDFTLTISNMQAEDLAVYYCLQYNYNPTFGAGTKLELKRTVAAPDVVMTQTPLSLPVSLGDQASISCRSSQSLVHSNGNTYLHWYLQKPGQSPKLLIYKVSNRFSGVPDRFSGSGSGTDFTLKISRVEAEDLGAYFCSQSTHVPYTFGGPTRLEIKRTVAAPSVFIFPPSDEQLKSGTASVVCLLNNFYPREAKVQWKVDNALQSGNSQESVTEQDSKDSTYSLSSTLTLSKADYEKHKVYACEVTHQGLSSPVTKSFNRGEC
notes: Four-chain DVD-Ig
What does the source list for B8?
^3H incorporation, AM14 TLR9-/- B cells [1]: 302; ^3H incorporation, AM14 WT B cells [1]: 4340; EC50 (mouse IgM): 0.0353 µg/mL
